From the Immune Epitope Database (IEDB) come the findings set out here.

Test [1] deals with HLA-A*02:03. Nature of the test: IEDB peptide-MHC binding, purified MHC/competitive/radioactivity; ≥ and ≤ were set here for values at or beyond the usual limits of such assays.
Test [2] has as its target HLA-A*02:02. The test is described as above.
Test [3] deals with HLA-A*02:01. The test is described as follows: IEDB peptide-MHC binding, cellular MHC/competitive/fluorescence; ≥ and ≤ were set here for values at or beyond the usual limits of such assays.
Test [4] concerns the target HLA-A*68:02. Described as above.
Test [5] addresses HLA-A*02:06. The description is as above.
Test [6] has as its target HLA-A*02:01. Nature of the test: IEDB peptide-MHC binding, purified MHC/competitive/radioactivity; ≥ and ≤ were set here for values at or beyond the usual limits of such assays.
Test [7] addresses HLA-A*68:02. Described as above.
In test [8] the target is HLA-A*02:06. The description is as above.
For test [9], the target named is HLA-A*02:02. The test is described as follows: IEDB peptide-MHC binding, cellular MHC/competitive/fluorescence; ≥ and ≤ were set here for values at or beyond the usual limits of such assays.
The mark [10] stands for this setting: source organism: Influenza A virus.
The mark [11] stands for this setting: source organism: Vaccinia virus WR.
The mark [12] stands for this setting: source organism: Mammarenavirus guanaritoense.

For orientation: IC50 means the concentration at which inhibition is half-maximal. In the case of AAFEDLRLL, the IC50 in test [1] (setting [10]) was determined as 1.47 µM; in test [2] (setting [10]), 4.45 µM; in [3] (setting [10]), 15.5 µM; in test [4] (setting [10]) it was 18.1 µM; in test [5] (setting [10]), 6.19 µM.
Take AIRAGYSIV: the concentration for half-maximal inhibition (IC50) is 0.00021 µM in [1] (setting [11]); 1.2 µM in test [2] (setting [11]); 5.01 µM in [3] (setting [11]); 15.4 µM in test [4] (setting [11]); 8.06 µM in test [5] (setting [11]).
On to ALKNSQAELT, for which the IC50 was 0.98 µM in [1] (setting [11]); 2.12 µM in test [2] (setting [11]); 51 µM in test [3] (setting [11]); 47.4 µM in [4] (setting [11]); 27.2 µM in [5] (setting [11]).
For AMHDKKIDIL the same measures were 1.18 µM, 0.387 µM, 8.94 µM, at least 70 µM and at least 70 µM.
Consider AVIIMAINV, for which the half-inhibitory concentration (IC50) in test [6] (setting [11]) worked out at 0.963 µM; in [7] (setting [11]), 1.24 µM; in test [8] (setting [11]) it was 0.065 µM; in test [1] (setting [11]), 2.76 µM; in [9] (setting [11]), 9.07 µM.
Take CVNGSCFTV: the half-inhibitory concentration (IC50) in test [6] (setting [10]) came to 3.95 µM; in test [7] (setting [10]), 3.25 µM; in test [8] (setting [10]) it was 1.99 µM; in test [1] (setting [10]), 1.13 µM; in test [9] (setting [10]), 12.4 µM.
For the sequence DTIAHINTLI, the IC50 is 0.114 µM in [1] (setting [11]); 1.16 µM in [2] (setting [11]); 10.3 µM in [3] (setting [11]); at least 70 µM in [4] (setting [11]); 62.7 µM in test [5] (setting [11]).
Regarding EIDVSEVKTL, the concentration for half-maximal inhibition (IC50) in test [1] (setting [11]) is 2.24 µM; in test [2] (setting [11]), 4.95 µM; in test [3] (setting [11]) it was at least 70 µM; in test [4] (setting [11]), 8.12 µM; in [5] (setting [11]), 56.1 µM.
For EILSNTTKTL the same measures were 0.101 µM, 0.345 µM, 10.1 µM, 15.1 µM and at least 70 µM.
Regarding EMKYALINLV, the half-maximal inhibitory concentration (IC50) in test [1] (setting [11]) was 0.283 µM; in [2] (setting [11]), 1.26 µM; in test [3] (setting [11]), 7.36 µM; in [4] (setting [11]), at least 70 µM; in test [5] (setting [11]), 9.84 µM.
For the sequence FMNDLQVSR, the IC50 in test [1] (setting [12]) is 0.915 µM; in test [2] (setting [12]), 0.249 µM; in test [3] (setting [12]), 6.25 µM; in test [4] (setting [12]), 26.3 µM; in test [5] (setting [12]), 33.6 µM.
Consider GIKNLKSLL, for which the concentration for half-maximal inhibition (IC50) in test [1] (setting [11]) was 2.62 µM; in test [2] (setting [11]), 2.14 µM; in test [3] (setting [11]), 54.5 µM; in test [4] (setting [11]), at least 70 µM; in test [5] (setting [11]), 61.7 µM.
For GLCNYGGILI, the IC50 worked out at 3.21 µM in test [1] (setting [11]); 0.152 µM in test [2] (setting [11]); 24.2 µM in [3] (setting [11]); 35.2 µM in test [4] (setting [11]); 5.03 µM in [5] (setting [11]).
For the sequence HLRASTTENA, the 50% inhibitory concentration (IC50) is 0.038 µM in [1] (setting [11]); 0.488 µM in [2] (setting [11]); 20.1 µM in test [3] (setting [11]); 36.3 µM in [4] (setting [11]); at least 70 µM in test [5] (setting [11]).
For IIAVFDSKLI the same measures were 0.595 µM, 0.758 µM, 5.93 µM, 54.7 µM and 8.51 µM.
The corresponding values for ITFLRPVLKA are 0.718 µM, 3.16 µM, at least 70 µM, 21.4 µM and 18 µM.
The corresponding values for KQNKFGDSPL are 0.216 µM, 0.09 µM, 5.55 µM, 31.6 µM and 5.08 µM.
For LATLNTLIT, the IC50 amounted to 1.55 µM in test [1] (setting [11]); 1.16 µM in test [2] (setting [11]); 10.6 µM in test [3] (setting [11]); 13.9 µM in test [4] (setting [11]); 14.2 µM in [5] (setting [11]).
The corresponding values for LIKTLSPAHL are 0.356 µM, 1.85 µM, 11.6 µM, 33.3 µM and 10.2 µM.
For LITNTKSDNI the same measures were 3.08 µM, 2.25 µM, at least 70 µM, 20.7 µM and 18.8 µM.
For LLKETIQKDI the same measures were 0.782 µM, 3.06 µM, 9.03 µM, 13.2 µM and 23.4 µM.
For the sequence LVDKEDTDIV, the IC50 in test [1] (setting [11]) was 1.68 µM; in [2] (setting [11]) it was 3.7 µM; in [3] (setting [11]) it was at least 70 µM; in test [4] (setting [11]), 56.8 µM; in test [5] (setting [11]), 27.2 µM.
